For experiment [1], the system named is HCC827 NSCLC cells. The experiment in a line: FACS phagocytosis assay of TAMRA-SE labeled HCC827 cells with or without bafilomycin. Format: cell-based. To be noted: CER-modified T cells, osimertinib treated HCC827, FACS. From the text: FIGS. 73A-73B show ablation of CER-induced phagocytosis by bafilomycin, an inhibitor of phagolysosome V-ATPase. CER104-modified CD4+ T cells and mock transduced CD4+ T cells (control) were co-cultured with HCC827 cells that were labeled with TAMRA-SE fluorescent dye and treated with osimertinib. Phagocytosis was quantified by FACs.
T cells were transduced with lentiviral vector comprising hCER104 nucleic acid as described in Example 6. hCER104 modified T cells were co-cultured with HCC827 adenocarcinoma cells with or without osimertinib. […] FACs plots from in vitro phagocytosis assays in hCER104 modified T cells or mock transduced control T cells are shown in FIG. 73B.

Experiment [2] concerns HCC827 NSCLC adenocarcinoma cells. The experiment in a line: FACS phagocytosis assay with pHrodo-red labeled HCC827 cells. In kind it is cell-based. To be noted: for % phagocytosis (pHrodo-positivity): overnight co-culture with HCC827. From the text: FIG. 67B is a bar graph of frequency of phagocytosis among CER-modified CD4+_T cells vs. CER-modified CD8+ T cells
CD4+ or CD3+ T cells were purified from PBMCs, activated, and transduced with lentiviral vector comprising hCER104 nucleic acid. hCER104 is a human CER104 construct comprising a Tim4 binding domain, a Tim4 transmembrane domain, TLR8 engulfment signaling domain, and Dap12 engulfment signaling domain and comprises an amino acid sequence of SEQ ID NO:176. HCC827 cells harbor an EGFR mutation and treatment with EGFR inhibitor osimertinib induces exposure of phosphatidylserine on the cell surface. Transduced T cells were expanded. CER-modified T cells were co-cultured with pHrodo-red labeled HCC827 NSCLC adenocarcinoma cells overnight and evaluated by FACs for pHrodo-positive signals to detect phagocytosis of HCC827 target cells (see, FIG. 67A, box inside FACs plot indicates % phagocytosis). T cell subsets were analyzed for their capacity to phagocytosis using antibody staining. Frequency of in vitro phagocytosis among CD4+ CER-modified T cells was much higher than CD8+ CER-modified T cells (see, FIG. 67B).

Experiment [3] concerns HPV+ SCC152/luceriferase+ cells. The experiment can be described thus: SCC152/luciferase xenograft in NSG mice, bioluminescence imaging. Particulars: CER CD4+ T cells added 1:1 to HPV E7 CD8+ T cells. In kind it is in vivo. As to the method:
HPV+ SCC152 engrafted NSG mice were treated with HPV E7 TCR modified CD8+ T cells+CD4+ T cells (mock transduced), HPV E7 TCR modified CD8+ T cells+hCER104 modified CD4+ T cells, or untreated. FIG. 74B is a graph of mean values of bioluminescence signal intensities obtained for treatment group.
HPV+ SCC152/luceriferase^+ cells were engrafted in NSG mice. Once tumors were established, mice were treated with HPV E7 specific TCR (SEQ ID NO:84) modified CD8+ T cells+mock transduced CD4+ T cells, HPV E7 specific TCR modified CD8+ T cells+hCER104 (SEQ ID NO:176) modified CD4+ T cells, or untreated (n=5 per treatment group). HPV E7 CD8+ T cells and hCER104 CD4+ T cells were administered at a 1:1 ratio. Tumor volume was measured over time by bioluminescence imaging (see, FIGS. 74A-74B).

The test system of experiment [4] is HCC827 NSCLC adenocarcinoma cells. The experiment in a line: HCC827 viability (MTT) and phase contrast microscopy after co-culture with or without osimertinib. In kind it is cell-based. As to the method:
Assays were performed at an effector to target cell ratio of 5:1 in the presence or absence of an EGFR small molecular inhibitor (1 nM osimertinib). Co-culture of hCER104 modified CD3+ T cells was compared with co-culture of purified hCER104 modified CD4+ T cells. Cell viability was quantified using 3-(4,5-dimethylthiazol-2-yl)-2,5-diphenyltetrazolium bromide (MTT) assay.
Specific target cell killing of HCC827 observed in hCER104 modified T cells in the presence of osimertinib.
hCER104 modified CD3+ T cells and hCER104 modified CD4+ T cells were co-cultured with HCC827 NSCLC adenocarcinoma cells treated for 48 hours with or without 1 nM osimertinib at an effector to target cell ratio of 5:1. Mock transduced T cells were used as control.

The test system of experiment [5] is E6/E7-specific human TCR/NFAT reporter cell line. The experiment in a line: Antigen cross-presentation assay with E6/E7 TCR Jurkat NFAT luciferase reporter cells. To be noted: CD4+ and CD8+ CER T cells after phagocytosing HPV+ tumor cells; compared to mock transduced T cells. Format: cell-based. As to the method: In a phagocytic assay step, CD4+ and CD8+ T cell lines expressing CERs were co-cultured with the CD4+ and CD8+ T cells expressing HPV E7 specific TCR and SCC152 (HPV+) cells overnight. The following day CER+ T cells were subsequently FACS-sorted. FACS plot depicts CT violet^+ CERs. Following FACS purification, antigen presentation of HPV oncoproteins was evaluated. CER-expressing cells were co-cultured at a 1:2 ratio with E6 & E7-specific TCR/NFAT reporter cell lines, and NFAT activation measured over time using a plate reader.
CER-expressing CD4^+ and CD8^+ T cell lines, after phagocytosing HPV^+ tumor cells, are capable of cross-presentation of E7 HPV oncoproteins to E7 TCR/NFAT reporter-expressing T cells as measured by NFAT activation.
CD4+ and CD8+ CER-expressing T cell lines were established from human PBMCs. […]
For assessing MHC-I cross-presentation, SCC152 HPV^+ cells were co-cultured overnight with CER123-expressing CD4+ and CD8+ T cells or mock-transduced (vector only) T cells in the presence of T cells expressing an E7-specific TCR. […] NFAT activation was assessed at serial time points (0, 6, 12, 24, and 72 hrs) by measuring luciferase activity in cell culture supernatants. […] Induction of E711-19-specific Jurkat T cells were quantified by luminescence of NFAT signaling at indicated time points and compared to Mock (vector-alone) transduced T cells (FIG. 63).

The text below walks through data of patent publication US12303551B2, “Cellular immunotherapy compositions and uses thereof” (CERO THERPEUTICS HOLDINGS, INC., priority 2018, dated 2025).

B1: hCER104: human CER104 construct: Tim4 binding domain, Tim4 transmembrane domain, TLR8 and Dap12 engulfment signaling domains; SEQ ID NO:176 (protein)
chain: ETVVTEVLGHRVTLPCLYSSWSHNSNSMCWGKDQCPYSGCKEALIRTDGMRVTSRKSAKYRLQGTIPRGDVSLTILNPSESDSGVYCCRIEVPGWFNDVKINVRLNLQRASTTTHRTATTTTRRTTTTSPTTTRQMTTTPAALPTTVVTTPDLTTGTPLQMTTIAVFTTANTCLSLTPSTLPEEATGLLTPEPSKEGPILTAESETVLPSDSWSSVESTSADTVLLTSKESKVWDLPSTSHVSMWKTSDSVSSPQPGASDTAVPEQNKTTKTGQMDGIPMSMKNEMPISQLLMIIAPSLGFVLFALFVAFLHHLFYWDVWFIYNVCLAKVKGYRSLSTSQTFYDAYISYDTKDASVTDWVINELRYHLEESRDKNVLLCLEERDWDPGLAIIDNLMQSINQSKKTVFVLTKKYAKSWNFKTAFYLALQRLMDENMDVIIFILLEPVLQHSQYLRLRQRICKSSILQWPDNPKAEGLFWQTLRNVVLTENDSRYNNMYVDSIKQYYFLGRLVPRGRGAAEAATRKQRITETESPYQELQGQRSDVYSDLNTQRPYYK
modifications: hCER104
On to B1, for which, in experiment [1], the “phagocytosis of fluorescent dye-labeled HCC827 cells” value is reported as “exhibited phagocytosis”. Moreover, the “% phagocytosis (pHrodo-positivity)” value in experiment [2] (CER-modified CD4+ T cells) was 42.0%; in experiment [2] (CER-modified CD8+ T cells) it was 9.81%. Moreover, the “frequency of in vitro phagocytosis, CD4+ versus CD8+ CER-modified T cells” value in experiment [2] (HCC827 target cells) was “much higher”. Further, the “tumor killing (bioluminescence)” value in experiment [3] is given as “enhanced tumor killing in vivo”. The “killing of HCC827 cells, phase contrast microscopy” value in experiment [4] (48 hours co-culture, CD4+ and CD3+ T cells, in the presence of osimertinib) was “specific cell killing”. The “HCC827 cell viability (MTT), CD4+ versus CD3+ CER-modified T cells” value in experiment [4] (48 hours, effector to target 5:1, with or without 1 nM osimertinib) is listed as “lower cell viability”.

B2: CER123: Chimeric engulfment receptor: Tim4 binding, Tim4 transmembrane, TLR2 and TRAF6 signaling; SEQ ID NO: 164 (protein)
chain: MSKGLLLLWLVTELWWLYLTPAASEDTIIGFLGQPVTLPCHYLSWSQSRNSMCWGKGSCPNSKCNAELLRTDGTRIISRKSTKYTLLGKVQFGEVSLTISNTNRGDSGVYCCRIEVPGWFNDVKKNVRLELRRATTTKKPTTTTRPTTTPYVTTTTPELLPTTVMTTSVLPTTTPPQTLATTAFSTAVTTCPSTTPGSFSQETTKGSAFTTESETLPASNHSQRSMMTISTDIAVLRPTGSNPGILPSTSQLTTQKTTLTTSESLQKTTKSHQINSRQTILIIACCVGFVLMVLLFLAFLHRFHGLWYMKMMWAWLQAKRKPRKAPSRNICYDAFVSYSERDAYWVENLMVQELENFNPPFKLCLHKRDFIPGKWIIDNIIDSIEKSHKTVFVLSENFVKSEWCKYELDFSHFRLFDENNDAAILILLEPIEKKAIPQRFCKLRKIMNTKTYLEWPMDEAQREGFWVNLRAAIKSMSLLNCENSCGSSQSESDCCVAMASSCSAVTKDDSVGGTASTGNLSSSFMEEIQGYDVEFDPPLESKYECPICLMALREAVQTPCGHRFCKACIIKSIRDAGHKCPVDNEILLENQLFPDNFAKREILSLMVKCPNEGCLHKMELRHLEDHQAHCEFALMDCPQCQRPFQKFHINIHILKDCPRRQVSCDNCAASMAFEDKEIHDQNCPLANVICEYCNTILIREQMPNHYDLDCPTAPIPCTFSTFGCHEKMQRNHLARHLQENTQSHMRMLA
modifications: CER123, amino acids 1-22 are signal peptide
As for B2, the “cross-presentation of HPV E7 oncoproteins (NFAT luminescence)” value in experiment [5] is on record as “enhanced cross-presentation efficiency”.
